Where two headings read alike, the source gives them in different places.
B1: LRRCC1 (protein, UniProt Q9C099 1-1032, looked up)
Leucine-rich repeat and …: MEAAAAVVAAEAEVENEDGDSSCGDVCFMDKGLQSISELSLDSTLHAVNLHCNNISKIEAIDHIWNLQHLDLSSNQISRIEGLNTLTKLCTLNLSCNLITKVEGLEELINLTRLNVSYNHIDDLSGLIPLHGIKHKLRYIDLHSNRIDSIHHLLQCMVGLHFLTNLILEKDGDDNPVCRLPGYRAVILQTLPQLRILDCKNIFGEPVNLTEINSSQLQCLEGLLDNLVSSDSPLNISEDEIIDRMPVITAPIDELVPLEQFASTPSDAVLTSFMSVCQSSEPEKNNHENDLQNEIKLQKLDDQILQLLNETSNSIDNVLEKDPRPKRDTDITSESDYGNRKECNRKVPRRSKIPYDAKTIQTIKHHNKNYNSFVSCNRKMKPPYLKELYVSSSLANCPMLQESEKPKTEIIKVDQSHSEDNTYQSLVEQLDQEREKRWRAEQAENKLMDYIDELHKHANEKEDIHSLALLTTDRLKEIIFRERNSKGQLEVMVHKLQNEIKKLTVELMKAKDQQEDHLKHLRTLEKTLEKMERQKRQQQAAQIRLIQEVELKASAADREIYLLRTSLHREREQAQQLHQLLALKEQEHRKELETREFFTDADFQDALAKEIAKEEKKHEQMIKEYQEKIDVLSQQYMDLENEFRIALTVEARRFQDVKDGFENVATELAKSKHALIWAQRKENESSSLIKDLTCMVKEQKTKLAEVSKLKQETAANLQNQINTLEILIEDDKQKSIQIELLKHEKVQLISELAAKESLIFGLRTERKVWGHELAQQGSSLAQNRGKLEAQIESLSRENECLRKTNESDSDALRIKCKIIDDQTETIRKLKDCLQEKDEHIKRLQEKITEIEKCTQEQLDEKSSQLDEVLEKLERHNERKEKLKQQLKGKEVELEEIRKAYSTLNRKWHDKGELLCHLETQVKEVKEKFENKEKKLKAERDKSIELQKNAMEKLHSMDDAFKRQVDAIVEAHQAEIAQLANEKQKCIDSANLKVHQIEKEMRELLEETCKNKKTMEAKIKQLAFALNEIQQDM
B2: LZTS2 (protein, UniProt Q9BRK4 1-669, looked up)
Leucine zipper putative tumor …: MAIVQTLPVPLEPAPEAATAPQAPVMGSVSSLISGRPCPGGPAPPRHHGPPGPTFFRQQDGLLRGGYEAQEPLCPAVPPRKAVPVTSFTYINEDFRTESPPSPSSDVEDAREQRAHNAHLRGPPPKLIPVSGKLEKNMEKILIRPTAFKPVLPKPRGAPSLPSFMGPRATGLSGSQGSLTQLFGGPASSSSSSSSSSAADKPLAFSGWASGCPSGTLSDSGRNSLSSLPTYSTGGAEPTTSSPGGHLPSHGSGRGALPGPARGVPTGPSHSDSGRSSSSKSTGSLGGRVAGGLLGSGTRASPDSSSCGERSPPPPPPPPSDEALLHCVLEGKLRDREAELQQLRDSLDENEATMCQAYEERQRHWQREREALREDCAAQAQRAQRAQQLLQLQVFQLQQEKRQLQDDFAQLLQEREQLERRCATLEREQRELGPRLEETKWEVCQKSGEISLLKQQLKESQAELVQKGSELVALRVALREARATLRVSEGRARGLQEAARARELELEACSQELQRHRQEAEQLREKAGQLDAEAAGLREPPVPPATADPFLLAESDEAKVQRAAAGVGGSLRAQVERLRVELQRERRRGEEQRDSFEGERLAWQAEKEQVIRYQKQLQHNYIQMYRRNRQLEQELQQLSLELEARELADLGLAEQAPCICLEEITATEI
B3: MAGED1 (protein, UniProt Q9Y5V3 1-778, looked up)
Melanoma-associated antigen D1: MAQKMDCGAGLLGFQAEASVEDSALLMQTLMEAIQISEAPPTNQATAAASPQSSQPPTANEMADIQVSAAAARPKSAFKVQNATTKGPNGVYDFSQAHNAKDVPNTQPKAAFKSQNATPKGPNAAYDFSQAATTGELAANKSEMAFKAQNATTKVGPNATYNFSQSLNANDLANSRPKTPFKAWNDTTKAPTADTQTQNVNQAKMATSQADIETDPGISEPDGATAQTSADGSQAQNLESRTIIRGKRTRKINNLNVEENSSGDQRRAPLAAGTWRSAPVPVTTQNPPGAPPNVLWQTPLAWQNPSGWQNQTARQTPPARQSPPARQTPPAWQNPVAWQNPVIWPNPVIWQNPVIWPNPIVWPGPVVWPNPLAWQNPPGWQTPPGWQTPPGWQGPPDWQGPPDWPLPPDWPLPPDWPLPTDWPLPPDWIPADWPIPPDWQNLRPSPNLRPSPNSRASQNPGAAQPRDVALLQERANKLVKYLMLKDYTKVPIKRSEMLRDIIREYTDVYPEIIERACFVLEKKFGIQLKEIDKEEHLYILISTPESLAGILGTTKDTPKLGLLLVILGVIFMNGNRASEAVLWEALRKMGLRPGVRHPLLGDLRKLLTYEFVKQKYLDYRRVPNSNPPEYEFLWGLRSYHETSKMKVLRFIAEVQKRDPRDWTAQFMEAADEALDALDAAAAEAEARAEARTRMGIGDEAVSGPWSWDDIEFELLTWDEEGDFGDPWSRIPFTFWARYHQNARSRFPQTFAGPIIGPGGTASANFAANFGAIGFFWVE
B4: LRRTM1 (protein, UniProt Q86UE6 35-522, looked up)
Leucine-rich repeat …: APSGCPQLCRCEGRLLYCEALNLTEAPHNLSGLLGLSLRYNSLSELRAGQFTGLMQLTWLYLDHNHICSVQGDAFQKLRRVKELTLSSNQITQLPNTTFRPMPNLRSVDLSYNKLQALAPDLFHGLRKLTTLHMRANAIQFVPVRIFQDCRSLKFLDIGYNQLKSLARNSFAGLFKLTELHLEHNDLVKVNFAHFPRLISLHSLCLRRNKVAIVVSSLDWVWNLEKMDLSGNEIEYMEPHVFETVPHLQSLQLDSNRLTYIEPRILNSWKSLTSITLAGNLWDCGRNVCALASWLNNFQGRYDGNLQCASPEYAQGEDVLDAVYAFHLCEDGAEPTSGHLLSAVTNRSDLGPPASSATTLADGGEGQHDGTFEPATVALPGGEHAENAVQIHKVVTGTMALIFSFLIVVLVLYVSWKCFPASLRQLRQCFVTQRRKQKQKQTMHQMAAMSAQEYYVDYKPNHIEGALVIINEYGSCTCHQQPARECEV
B5: MLXIP (protein, UniProt Q9HAP2 2-919, looked up)
MLX-interacting protein: AADVFMCSPRRPRSRGRQVLLKPQVSEDDDDSDTDEPSPPPASGAATPARAHASAAPPPPRAGPGREEPPRRQQIIHSGHFMVSSPHREHPPKKGYDFDTVNKQTCQTYSFGKTSSCHLSIDASLTKLFECMTLAYSGKLVSPKWKNFKGLKLQWRDKIRLNNAIWRAWYMQYLEKRKNPVCHFVTPLDGSVDVDEHRRPEAITTEGKYWKSRIEIVIREYHKWRTYFKKRLQQHKDEDLSSLVQDDDMLYWHKHGDGWKTPVPMEEDPLLDTDMLMSEFSDTLFSTLSSHQPVAWPNPREIAHLGNADMIQPGLIPLQPNLDFMDTFEPFQDLFSSSRSIFGSMLPASASAPVPDPNNPPAQESILPTTALPTVSLPDSLIAPPTAPSLAHMDEQGCEHTSRTEDPFIQPTDFGPSEPPLSVPQPFLPVFTMPLLSPSPAPPPISPVLPLVPPPATALNPPAPPTFHQPQKFAGVNKAPSVITHTASATLTHDAPATTFSQSQGLVITTHHPAPSAAPCGLALSPVTRPPQPRLTFVHPKPVSLTGGRPKQPHKIVPAPKPEPVSLVLKNARIAPAAFSGQPQAVIMTSGPLKREGMLASTVSQSNVVIAPAAIARAPGVPEFHSSILVTDLGHGTSSPPAPVSRLFPSTAQDPLGKGEQVPLHGGSPQVTVTGPSRDCPNSGQASPCASEQSPSPQSPQNNCSGKSDPKNVAALKNRQMKHISAEQKRRFNIKMCFDMLNSLISNNSKLTSHAITLQKTVEYITKLQQERGQMQEEARRLREEIEELNATIISCQQLLPATGVPVTRRQFDHMKDMFDEYVKTRTLQNWKFWIFSIIIKPLFESFKGMVSTSSLEELHRTALSWLDQHCSLPILRPMVLSTLRQLSTSTSILTDPAQLPEQASKAVTRIGKRLGES
B6: MORC4 (protein, UniProt Q8TE76 1-937, looked up)
MORC family CW-type zinc …: MLLYRGAPAGPGAPGCGLARPGGGPQAFGIRLSTMSPRYLQSNSSSHTRPFSAIAELLDNAVDPDVSARTVFIDVEEVKNKSCLTFTDDGCGMTPHKLHRMLSFGFTDKVIKKSQCPIGVFGNGFKSGSMRLGKDALVFTKNGGTLTVGLLSQTYLECVQAQAVIVPIVPFNQQNKKMIITEDSLPSLEAILNYSIFNRENDLLAQFDAIPGKKGTRVLIWNIRRNKNGKSELDFDTDQYDILVSDFDTEEKMTGGVTSELPETEYSLRAFCGILYMKPRMKIFLRQKKVTTQMIAKSLANVEYDTYKPTFTNKQVRITFGFSCKNSNQFGIMMYHNNRLIKSFEKVGCQVKPTRGEGVGVIGVIECNFLKPAYNKQDFEYTKEYRLTINALAQKLNAYWKEKTSQDNFETSTVARPIPKVPDQTWVQCDECLKWRKLPGKIDPSMLPARWFCYYNSHPKYRRCSVPEEQELTDEDLCLSKAKKQEQTVEEKKKMPMENENHQVFSNPPKILTVQEMAGLNNKTIGYEGIHSPSVLPSGGEESRSPSLQLKPLDSSVLQFSSKYKWILGEEPVEKRRRLQNEMTTPSLDYSMPAPYRRVEAPVAYPEGENSHDKSSSERSTPPYLFPEYPEASKNTGQNREVSILYPGAKDQRQGSLLPEELEDQMPRLVAEESNRGSTTINKEEVNKGPFVAVVGVAKGVRDSGAPIQLIPFNREELAERRKAVESWNPVPYSVASAAIPAAAIGEKARGYEESEGHNTPKLKNQRELEELKRTTEKLERVLAERNLFQQKVEELEQERNHWQSEFKKVQHELVIYSTQEAEGLYWSKKHMGYRQAEFQILKAELERTKEEKQELKEKLKETETHLEMLQKAQVSYRTPEGDDLERALAKLTRLRIHVSYLLTSVLPHLELREIGYDSEQVDGILYTVLEANHILD
B7: NAP1L1 (protein, UniProt P55209 2-388, looked up)
Nucleosome assembly protein …: ADIDNKEQSELDQDLDDVEEVEEEETGEETKLKARQLTVQMMQNPQILAALQERLDGLVETPTGYIESLPRVVKRRVNALKNLQVKCAQIEAKFYEEVHDLERKYAVLYQPLFDKRFEIINAIYEPTEEECEWKPDEEDEISEELKEKAKIEDEKKDEEKEDPKGIPEFWLTVFKNVDLLSDMVQEHDEPILKHLKDIKVKFSDAGQPMSFVLEFHFEPNEYFTNEVLTKTYRMRSEPDDSDPFSFDGPEIMGCTGCQIDWKKGKNVTLKTIKKKQKHKGRGTVRTVTKTVSNDSFFNFFAPPEVPESGDLDDDAEAILAADFEIGHFLRERIIPRSVLYFTGEAIEDDDDDYDEEGEEADEEGEEEGDEENDPDYDPKKDQNPAEC

Tests used:
[1] = tested on: HCV ORFs (Gal4-DB fusions); type: binding, HCV genotype 1b, isolate con1; conditions: human protein listed by gene symbol; the value names the HCV protein it interacts with
[2] = biological target: T1, HCV ORFs (Gal4-DB fusions) (Hepatitis C virus genotype 1b, UniProt Q9WMX2); type: binding, HCV genotype 1b, isolate con1; conditions: human protein as prey
T1 construct: expressed in transfected cells; host or cells: Saccharomyces cerevisiae MAV203 (IMAP1) / AH109 (IMAP2)

HCV proteins = biological target: T2, HCV proteins (Hepatitis C virus genotype 1b, UniProt Q9WMX2); test: Validation by Y2H pairwise matrices; type: binding;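 also: yeast two-hybrid pairwise tests of interactions first found in Y2H screens of HCV bait proteins against human cDNA libraries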
T2 construct: expressed in transfected cells

[3] = validation of interaction with HCV protein NS3
[4] = validation of interaction with HCV protein CORE
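For IMAP Y2H IMAP1 (number of IST) in this document: yeast two-hybrid screens using HCV genotype 1b proteins fused to Gal4-DB as baits against prey cDNA libraries from human spleen and foetal brain, IMAP1 via transformation and IMAP2 via mating.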
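For IMAP Y2H IMAP2 (number of IST) in this document: yeast two-hybrid screens using HCV genotype 1b proteins fused to Gal4-DB as baits against prey cDNA libraries from human spleen and foetal brain, IMAP1 via transformation and IMAP2 via mating.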
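For Interaction with viral protein in this document: yeast two-hybrid screens using HCV genotype 1b proteins fused to Gal4-DB as baits against prey cDNA libraries from human spleen and foetal brain, IMAP1 via transformation and IMAP2 via mating.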

Molecule | Interaction with viral protein [1] | IMAP Y2H IMAP1 (number of IST) ([2]; HCV protein NS3 as bait) | Y2H matrices (HCV proteins; [3]) | IMAP Y2H IMAP1 (number of IST) ([2]; HCV protein CORE as bait) | IMAP Y2H IMAP2 (number of IST) ([2]; HCV protein CORE as bait) | Y2H matrices (HCV proteins; [4]) | IMAP Y2H IMAP2 (number of IST) ([2]; HCV protein NS3 as bait) | IMAP Y2H IMAP1 (number of IST) ([2]; HCV protein NS5A as bait) | IMAP Y2H IMAP2 (number of IST) ([2]; HCV protein NS5A as bait) | Y2H matrices (HCV proteins; interaction with HCV protein NS5A)
B1 | NS3 | 1 | + |  |  |  |  |  |  | 
B2 | NS3 | 8 | + |  |  |  |  |  |  | 
B3 | NS3 and CORE | 1 | + | 1 | 2 | + |  |  |  | 
B4 | CORE |  |  | 1 |  | + |  |  |  | 
B5 | NS3 | 1 | + |  |  |  |  |  |  | 
B6 | NS3 | 1 | + |  |  |  |  |  |  | 
B7 | NS3 and NS5A |  |  |  |  |  | 1 | 1 | 31 | +

Source: patent US20110091994A1, “Methods for Screening Compounds for Treating and/or Preventing an Hepatitis C Virus Infection” (priority 2008, published 2011)
